We go through five proteins from paper PMC11643046 (bioRxiv, 2025).

As usually defined, the stoichiometry N is the number of molecules, sites or subunits per partner or assembly.

The data set concerns the molecule itself. The experiment in a line: SDS-PAGE.

Where a chain is given by its changes, count along the chain named. Numbers in names are those of the source.

B1: Mycobacterium tuberculosis CrgA (Rv0011c), wild type, full length, with C-terminal His tag (natural protein)
chain: MMPKSKVRKKNDFTVSAVSRTPMKVKVGPSSVWFVSLFIGLMLIGLIWLMVFQLAAIGSQAPTALNWMAQLGPWNYAIAFAFMITGLLLTMRWH
As for B1, the “stoichiometry N” value was found to be 2.

B2: CrgA G44V mutant (natural protein)
chain: B1 chain with G45V
On to B2, for which the binding result is on record as “binds”.

B3: CrgA A78V mutant (natural protein)
chain: B1 chain with A79V
For B3, the binding result is listed as “binds”.

B4: CrgA G39V mutant (natural protein)
chain: B1 chain with G40V
For the protein B4, the binding result was “binds”.

B5: CrgA N74A mutant (natural protein)
chain: B1 chain with N75A
On to B5, for which the binding result is reported as “binds”.
